Assay results taken from the supplement of paper PMC6757056.
± gives the standard deviation of the averaged measurements.

B1: library; a variant is named by its letters at N, in order (parent)
chain: GCUGUCACCGGUGUAUUACCCUAGUGGUCGACCGGUCUGAUGAGUCUNNNNNNAGACGAAACAGC

Legend:
hypoxanthine [1] = variants of: B1; assay: FACS-Seq fitted mean relative fluorescence mCherry/BFP without ligand (log10 relative fluorescence); ligand: hypoxanthine (xanthine aptamer); higher = higher reporter protein expression; settings: HEK293T, ligand present: no
Method in brief: (§1)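 After lentiviral transduction, HEK293T library cells bearing an mCherry ribozyme-switch reporter and an EF1α-BFP marker were enriched. They were then held for 48 h with or without ligand and sorted by mCherry/BFP into 6 bins, and each bin's genomic DNA was PCR-amplified, barcoded and MiSeq-sequenced. Fluorescence is expressed as a normalized fitted mean: the normal mean of log10(mCherry/BFP) bin counts, scaled to five spiked-in control ribozymes.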

hypoxanthine [2] = variants of: B1; assay: normalized RNA/DNA level with ligand (relative to sTRSVctl = 100) (log10 (% of sTRSVctl)); ligand: hypoxanthine (xanthine aptamer); higher = less ribozyme self-cleavage, higher mRNA level; settings: ligand concentration (+) RNA-Seq: 5 mM, HEK293T, reporter: mCherry (pCS4076), ligand present: yes
Method in brief: (§2)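 Library plasmids encoding reporter-linked ribozyme switches (mCherry, or eGFP for some folinic acid experiments) were transfected into HEK293T at 4 µg per 6-well well. Ligand, when used, was added 1 h before transfection. Total RNA was extracted with EDTA 72 h later, then reverse-transcribed, amplified, barcoded and sequenced. RNA level was RNA reads over DNA reads, divided by a spiked-in non-cleaving control (or the top 25 sequences), ×100, log10; only sequences with ≥100 DNA reads were kept.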

hypoxanthine [3] = variants of: B1; assay: normalized RNA/DNA level without ligand (relative to sTRSVctl = 100) (log10 (% of sTRSVctl)); ligand: hypoxanthine (xanthine aptamer); higher = less ribozyme self-cleavage, higher mRNA level; settings: HEK293T, reporter: mCherry (pCS4076), ligand present: no
Method in brief: as §2

hypoxanthine [4] = variants of: B1; assay: FACS-Seq fitted mean relative fluorescence mCherry/BFP with ligand (log10 relative fluorescence); ligand: hypoxanthine (xanthine aptamer); ligand concentration (+) FACS-Seq: 5 mM; higher = higher reporter protein expression; settings: HEK293T, ligand present: yes
Method in brief: as §1

| Variant | FACS-Seq fitted mean (log10) (hypoxanthine [1]) | normalized RNA/DNA level with ligand (log10) (hypoxanthine [2]) | normalized RNA/DNA level without ligand (log10) (hypoxanthine [3]) | FACS-Seq fitted mean (log10) (hypoxanthine [4]) |
| --- | --- | --- | --- | --- |
| UUUAAC | 0.697 ± 0.045 | 2 ± 0.04 | 1.86 ± 0.021 | 0.716 ± 0.07 |
| GUGCAA | 0.274 ± 0.033 | 1.904 ± 0.0021 | 1.69 ± 0.037 | 0.57 ± 0.059 |
| GUGCAG | 0.0446 ± 0.026 | 1.739 ± 0.0069 | 1.3 ± 0.099 | 0.427 ± 0.039 |
| GUGCAU | -0.413 ± 0.2 | 1.91 ± 0.038 | 1.74 ± 0.018 | -0.852 ± 0.077 |
| AAGUAA | 0.279 ± 0.049 | 1.86 ± 0.036 | 1.601 ± 0.012 | 0.457 ± 0.048 |
| GGUUGC | -0.0647 ± 0.067 | 1.92 ± 0.037 | 1.52 ± 0.035 | 0.345 ± 0.043 |
| GUACCA | 0.512 ± 0.037 | 1.944 ± 0.012 | 1.867 ± 0.006 | 0.532 ± 0.03 |
| UUGACA | 0.459 ± 0.015 | 1.95 ± 0.046 | 1.87 ± 0.026 | 0.491 ± 0.048 |
| GCGCCC | 0.221 ± 0.029 | 1.95 ± 0.071 | 1.742 ± 0.0061 | 0.44444 ± 0.00011 |
| CCGGUU | 0.42 ± 0.083 | 2.026 ± 0.011 | 1.91 ± 0.032 | 0.297 ± 0.098 |
| AGGGGC | 0.795 ± 0.067 | 1.95 ± 0.047 | 1.86 ± 0.079 | 0.741 ± 0.049 |
| GCAGUG | 0.155 ± 0.01 | 1.87 ± 0.075 | 1.4 ± 0.064 | 0.533 ± 0.039 |
| ACGUGU | 0.135 ± 0.003 | 1.87 ± 0.047 | 1.4 ± 0.027 | 0.682 ± 0.074 |
| AUGUAA | 0.323 ± 0.0041 | 1.93 ± 0.036 | 1.68 ± 0.0086 | 0.279 ± 0.019 |
| AACCGC | -0.101 ± 0.015 | 1.916 ± 0.014 | 1.79 ± 0.036 | 0.124 ± 0.016 |
| UUAGGG | 0.351 ± 0.012 | 1.87 ± 0.037 | 1.69 ± 0.017 | 0.655 ± 0.028 |
| UAUGAC | 0.282 ± 0.084 | 1.95 ± 0.047 | 1.807 ± 0.01 | 0.457 ± 0.11 |
| AAGUCA | 0.838 ± 0.069 | 1.9 ± 0.062 | 1.63 ± 0.062 | 0.608 ± 0.1 |

| Variant | FACS-Seq fitted mean (log10) (hypoxanthine [1]) | normalized RNA/DNA level with ligand (log10) (hypoxanthine [2]) | normalized RNA/DNA level without ligand (log10) (hypoxanthine [3]) | FACS-Seq fitted mean (log10) (hypoxanthine [4]) |
| --- | --- | --- | --- | --- |
| UUCUGG | 0.955 ± 0.026 | 1.931 ± 0.0039 | 1.8 ± 0.023 | 0.764 ± 0.068 |
| AAGGUU | 0.941 ± 0.099 | 1.93 ± 0.021 | 1.7849 ± 0.0012 | 0.771 ± 0.19 |
| GUAUGU | 0.23 ± 0.082 | 1.899 ± 0.013 | 1.77 ± 0.017 | 0.398 ± 0.0075 |
| GGAGAA | 0.538 ± 0.019 | 1.92 ± 0.022 | 1.68 ± 0.053 | 0.643 ± 0.034 |
| GACACG | 0.359 ± 0.011 | 1.9 ± 0.045 | 1.51 ± 0.018 | 0.695 ± 0.12 |
| GGGGCC | -0.395 ± 0.028 | 1.97 ± 0.036 | 1.89 ± 0.077 | 0.0142 ± 0.039 |
| ACGUAA | 0.16 ± 0.018 | 1.86 ± 0.072 | 1.491 ± 0.0093 | 0.4284 ± 0.0027 |
| GUAUUG | -0.148 ± 0.011 | 1.882 ± 0.011 | 1.45 ± 0.1 | 0.209 ± 0.0066 |
| UGUAUG | 0.361 ± 0.043 | 1.909 ± 0.007 | 1.777 ± 0.0029 | 0.435 ± 0.059 |
| ACGACG | 0.162 ± 0.0022 | 1.82 ± 0.045 | 1.26 ± 0.019 | 0.706 ± 0.059 |
| ACGACA | 0.53 ± 0.013 | 1.912 ± 0.013 | 1.638 ± 0.016 | 0.613 ± 0.031 |
| GCCGAU | 0.193 ± 0.041 | 1.96 ± 0.027 | 1.76 ± 0.045 | -0.0573 ± 0.24 |
| GAUAAG | -0.0234 ± 0.075 | 1.81 ± 0.027 | 1.36 ± 0.025 | 0.43 ± 0.02 |
| CCCUCU | 0.556 ± 0.081 | 1.98 ± 0.036 | 1.994 ± 0.015 | 0.481 ± 0.086 |
| GGUCUA | 0.4701 ± 0.0031 | 1.896 ± 0.0023 | 1.9 ± 0.022 | 0.586 ± 0.022 |
| CCGGGC | 0.124 ± 0.013 | 1.99 ± 0.074 | 1.88 ± 0.019 | 0.382 ± 0.068 |
| GUAGCU | -0.279 ± 0.094 | 1.98 ± 0.03 | 1.88 ± 0.063 | -0.197 ± 0.0065 |
| CAACGA | 0.153 ± 0.16 | 1.951 ± 0.011 | 1.79 ± 0.036 | 0.353 ± 0.055 |
